One assay concerns the target K5:I-E^k. The experiment in a line: biomembrane force probe.
Another assay has as its target human CD3γε ECD (human, UniProt P09693;P07766, biotin (BirA) on the C-terminal biotinylation sequence). The assay can be described thus: biomembrane force probe.
Another assay addresses mouse CD3γε ECD (Mus musculus (Mouse)., UniProt P11942;P22646, biotin (BirA) on the C-terminal biotinylation sequence). The experiment in a line: micropipette adhesion frequency.

mouse CD3γε ECD, sequence (P11942 23-116, chain 1 of 2): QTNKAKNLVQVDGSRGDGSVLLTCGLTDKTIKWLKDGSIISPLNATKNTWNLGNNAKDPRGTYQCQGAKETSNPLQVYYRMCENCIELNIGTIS
mouse CD3γε ECD, sequence (P22646 23-108, chain 2 of 2): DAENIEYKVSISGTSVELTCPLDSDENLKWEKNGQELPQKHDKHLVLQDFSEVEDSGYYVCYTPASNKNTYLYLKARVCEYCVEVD
human CD3γε ECD, sequence (P09693 23-116, one chain of several): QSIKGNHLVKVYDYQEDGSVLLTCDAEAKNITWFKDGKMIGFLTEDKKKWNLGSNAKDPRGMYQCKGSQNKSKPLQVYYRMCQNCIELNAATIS

With “2B4 TCR, wild type, fully assembled on the surface of T hybridoma cells (from UniProt P01849 1-136)”, the peak bond lifetime (at 15 pN) with K5:I-E^k worked out at 1.6 s.

B1: human CD3δε ECD (complex)
chain 1: FKIPIEELEDRVFVNCNTSITWVEGTVGTLLSDITRLDLGKRILDPRGIYRCNGTDIYKDKESTVQVHYRMCQSCVELDPATVA
chain 2: DGNEEMGGITQTPYKVSISGTTVILTCPQYPGSEILWQHNDKNIGGDEDDKNIGSDEDHLSLKEFSELEQSGYYVCYPRGSKPEDANFYLYLRARVCENCMEMD
modifications: biotin (BirA) on the C-terminal biotinylation sequence
On to B1, for which, in the assay with human CD3γε ECD, the binding result is recorded as “binds”.

B2: 2C11 full-length mAb (anti-CD3ε, clone 145-2C11) (antibody, V domains shown)
VH: EVQLVESGGGLVQPGKSLKLSCEASGFTFSGYGMHWVRQAPGRGLESVAYITSSSINIKYADAVKGRFTVSRDNAKNLLFLQMNILKSEDTAMYYCARFDWDKNYWGQGTMVTVSS
VL: DIQMTQSPSSLPASLGDRVTINCQASQDISNYLNWYQQKPGKAPKLLIYYTNKLADGVPSRFSGSGSGRDSSFTISSLESEDIGSYYCQQYYNYPWTFGPGTKLEIK
As for B2, the binding result in the assay with mouse CD3γε ECD was “binds”.

(Values after paper doi:10.1101/2022.04.14.488403 (bioRxiv, 2022).)
